Usually Kd stands for the free concentration of one partner at which half of the binding sites on the other are occupied at equilibrium, for simple one-to-one binding.

Data set [1] concerns the target DicerO (oocyte isoform lacking HEL1) (Mus musculus, UniProt Q8R418-2 1-1678). The data set can be described thus: EMSA; EMSA conditions not in the material; protein storage/SEC buffer 50 mM Tris pH 8.0, 150 mM NaCl, 1 mM DTT, 2 mM MgCl2 (2 mM CaCl2 for WT Dicer structural work). Particulars: protein: recombinant, tags: N-term TwinStrep-HA-TEV, C-term TEV-2xFLAG-8xHis, hairpin, GCAA tetraloop, 3' overhang UU. A general note: A gel shift assay detects complexes by their altered migration in electrophoresis.

The target of data set [2] is Dicer (full-length) (Mus musculus, UniProt Q8R418 1-1916). The data set is described as above. Particulars: protein: recombinant, tags: N-term TwinStrep-HA-TEV, C-term TEV-2xFLAG-8xHis, hairpin, GCAA tetraloop, 3' overhang UU.
Chain of Dicer (full-length) (Q8R418 whole entry): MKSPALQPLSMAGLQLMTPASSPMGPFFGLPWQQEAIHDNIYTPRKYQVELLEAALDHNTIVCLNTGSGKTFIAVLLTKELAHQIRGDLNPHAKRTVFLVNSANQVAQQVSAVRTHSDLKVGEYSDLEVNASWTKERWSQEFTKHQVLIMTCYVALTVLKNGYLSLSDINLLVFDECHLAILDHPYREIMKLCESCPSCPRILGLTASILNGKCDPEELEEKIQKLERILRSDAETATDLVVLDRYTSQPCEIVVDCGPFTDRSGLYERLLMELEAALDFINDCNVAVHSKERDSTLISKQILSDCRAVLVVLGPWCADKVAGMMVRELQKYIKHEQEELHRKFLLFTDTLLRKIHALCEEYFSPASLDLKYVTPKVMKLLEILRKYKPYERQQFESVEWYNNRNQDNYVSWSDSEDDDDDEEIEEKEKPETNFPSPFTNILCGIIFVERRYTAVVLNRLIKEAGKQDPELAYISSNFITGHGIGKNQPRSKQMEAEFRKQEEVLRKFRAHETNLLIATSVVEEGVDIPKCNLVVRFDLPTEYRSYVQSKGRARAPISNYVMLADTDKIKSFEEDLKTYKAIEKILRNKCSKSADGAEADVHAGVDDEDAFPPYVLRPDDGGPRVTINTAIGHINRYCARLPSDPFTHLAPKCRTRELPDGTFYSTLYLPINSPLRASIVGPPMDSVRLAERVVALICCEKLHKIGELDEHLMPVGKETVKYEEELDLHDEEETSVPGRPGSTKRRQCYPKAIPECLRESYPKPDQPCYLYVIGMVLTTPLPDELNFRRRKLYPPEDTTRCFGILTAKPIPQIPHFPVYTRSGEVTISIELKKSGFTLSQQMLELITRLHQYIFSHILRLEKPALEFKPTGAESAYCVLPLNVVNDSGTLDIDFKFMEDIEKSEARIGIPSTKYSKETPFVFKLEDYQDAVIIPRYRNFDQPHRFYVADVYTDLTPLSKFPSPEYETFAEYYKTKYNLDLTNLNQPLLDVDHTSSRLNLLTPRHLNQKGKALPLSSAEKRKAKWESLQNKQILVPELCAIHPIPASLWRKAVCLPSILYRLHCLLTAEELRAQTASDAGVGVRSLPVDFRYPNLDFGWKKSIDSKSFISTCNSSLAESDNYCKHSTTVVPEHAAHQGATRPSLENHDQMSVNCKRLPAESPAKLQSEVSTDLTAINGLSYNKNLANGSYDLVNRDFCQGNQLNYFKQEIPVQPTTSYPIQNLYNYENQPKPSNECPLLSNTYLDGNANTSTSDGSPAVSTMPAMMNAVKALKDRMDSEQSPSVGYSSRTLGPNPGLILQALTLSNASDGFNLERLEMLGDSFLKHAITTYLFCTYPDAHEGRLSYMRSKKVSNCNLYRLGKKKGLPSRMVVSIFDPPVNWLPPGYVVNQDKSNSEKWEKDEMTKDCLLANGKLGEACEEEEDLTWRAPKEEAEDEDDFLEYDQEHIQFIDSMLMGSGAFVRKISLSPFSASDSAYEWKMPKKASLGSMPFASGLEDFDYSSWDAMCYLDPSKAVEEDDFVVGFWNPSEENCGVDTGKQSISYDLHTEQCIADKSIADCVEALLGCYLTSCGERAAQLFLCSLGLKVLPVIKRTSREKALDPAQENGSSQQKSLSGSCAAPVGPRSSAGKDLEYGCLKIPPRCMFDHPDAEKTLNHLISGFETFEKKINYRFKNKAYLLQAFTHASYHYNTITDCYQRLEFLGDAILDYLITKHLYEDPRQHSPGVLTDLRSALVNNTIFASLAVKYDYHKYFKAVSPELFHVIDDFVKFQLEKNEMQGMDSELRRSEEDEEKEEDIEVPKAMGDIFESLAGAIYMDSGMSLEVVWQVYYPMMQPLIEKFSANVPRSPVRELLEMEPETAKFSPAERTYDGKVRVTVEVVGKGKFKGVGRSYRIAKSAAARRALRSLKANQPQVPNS

Chain of DicerO (oocyte isoform lacking HEL1) (Q8R418 other isoform, or with tags, fused parts or gaps): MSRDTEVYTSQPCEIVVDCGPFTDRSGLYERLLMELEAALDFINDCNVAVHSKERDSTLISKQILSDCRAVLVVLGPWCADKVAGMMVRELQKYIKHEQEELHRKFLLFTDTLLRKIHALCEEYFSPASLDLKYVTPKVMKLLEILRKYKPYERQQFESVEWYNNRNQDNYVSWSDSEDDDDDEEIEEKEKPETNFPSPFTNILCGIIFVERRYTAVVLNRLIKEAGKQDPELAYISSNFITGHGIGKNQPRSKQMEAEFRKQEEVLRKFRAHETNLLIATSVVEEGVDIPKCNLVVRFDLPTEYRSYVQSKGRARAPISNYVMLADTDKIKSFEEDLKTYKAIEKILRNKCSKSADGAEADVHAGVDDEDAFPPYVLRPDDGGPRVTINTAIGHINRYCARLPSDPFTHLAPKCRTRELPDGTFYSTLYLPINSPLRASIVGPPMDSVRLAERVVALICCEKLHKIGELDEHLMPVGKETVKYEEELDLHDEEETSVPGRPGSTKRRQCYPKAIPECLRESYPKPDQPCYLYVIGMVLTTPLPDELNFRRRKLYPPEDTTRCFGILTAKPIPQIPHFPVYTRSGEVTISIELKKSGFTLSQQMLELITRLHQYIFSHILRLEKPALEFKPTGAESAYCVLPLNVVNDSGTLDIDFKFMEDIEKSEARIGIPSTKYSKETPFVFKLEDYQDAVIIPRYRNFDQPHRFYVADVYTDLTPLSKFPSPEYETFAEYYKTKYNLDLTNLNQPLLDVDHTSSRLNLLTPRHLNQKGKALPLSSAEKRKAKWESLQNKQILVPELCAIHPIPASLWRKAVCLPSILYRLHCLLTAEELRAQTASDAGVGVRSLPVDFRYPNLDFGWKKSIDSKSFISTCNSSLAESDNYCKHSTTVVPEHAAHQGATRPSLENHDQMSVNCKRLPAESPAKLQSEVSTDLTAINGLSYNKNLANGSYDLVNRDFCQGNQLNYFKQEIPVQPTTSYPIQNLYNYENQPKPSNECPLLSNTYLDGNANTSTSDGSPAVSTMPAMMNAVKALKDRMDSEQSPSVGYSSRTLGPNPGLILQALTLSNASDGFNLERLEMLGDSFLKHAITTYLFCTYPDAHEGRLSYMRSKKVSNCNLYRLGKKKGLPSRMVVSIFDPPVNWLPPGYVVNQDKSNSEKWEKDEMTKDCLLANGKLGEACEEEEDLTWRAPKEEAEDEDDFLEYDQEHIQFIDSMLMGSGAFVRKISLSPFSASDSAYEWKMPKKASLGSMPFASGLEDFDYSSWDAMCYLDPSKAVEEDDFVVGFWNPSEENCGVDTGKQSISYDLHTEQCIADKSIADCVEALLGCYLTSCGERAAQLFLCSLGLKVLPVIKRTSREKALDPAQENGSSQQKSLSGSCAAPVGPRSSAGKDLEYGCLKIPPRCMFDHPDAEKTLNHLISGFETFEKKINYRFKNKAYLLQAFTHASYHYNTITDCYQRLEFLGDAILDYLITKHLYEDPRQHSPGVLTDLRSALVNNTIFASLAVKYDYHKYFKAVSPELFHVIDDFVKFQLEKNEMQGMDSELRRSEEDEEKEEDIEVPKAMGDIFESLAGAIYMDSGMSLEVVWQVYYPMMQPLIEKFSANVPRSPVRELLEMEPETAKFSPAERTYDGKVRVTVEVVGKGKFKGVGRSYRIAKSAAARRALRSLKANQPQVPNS

B1: 42bp stem-loop (structured_RNA)
RNA: AGAGGAGAGGGACAAUAGAGGAGAGGGACAAUCAUAAAGGCCGCAAGGCCUUUAUGAUUGUCCCUCUCCUCUAUUGUCCCUCUCCUCUUU
As to B1, the Kd in data set [1] (42 bp stem) was determined as 55 ± 4 nM; in data set [2] (42 bp stem), 115 ± 20 nM.

B2: 30bp stem-loop (structured_RNA)
RNA: AGAGGAGAGGGACAAUCAUAAAGGCCACUCGCAAGAGUGGCCUUUAUGAUUGUCCCUCUCCUCUUU
Regarding B2, the Kd in data set [1] (30 bp stem) was 79 ± 7 nM; in data set [2] (30 bp stem), 120 ± 27 nM.

The values above are taken from article PMC9645528, “Structural and functional basis of mammalian microRNA biogenesis by Dicer”.
